To fix the notation:
B1: CPEB3 Ribozyme (parent)
chain: GGGGGCCACAGCAGAAGCGUUCACGUCGCGGCCCCUGUCAGAUUCUGGUGAAUCUGCGAAUUCUGCUGU

The data set covers variants of B1. Briefly: self-cleavage, relative activity (ratio to wild type); higher = more cleavage; co-transcriptional.
For the variant A23C G68U, the self-cleavage was 0.995.

Regarding A23C G68C, the self-cleavage is 0.977.

As for C24A G30A, the self-cleavage worked out at 0.217.

As for C24A G30U, the self-cleavage came out at 0.159.

Regarding A23G U44A, the self-cleavage was 0.923.

On to A23G U44G, for which the self-cleavage turned out to be 1.02.

For the variant A23G U44C, the self-cleavage is 0.904.

Consider A23G U67G, for which the self-cleavage is 0.992.

As for A23G U67A, the self-cleavage was found to be 1.03.

For A23G U67C, the self-cleavage was found to be 0.925.

As to A23C U49C, the self-cleavage stood at 0.927.

For the variant A23C U49A, the self-cleavage is 0.951.

For A23G G25U, the self-cleavage amounted to 0.177.

Take A23G G25A: the self-cleavage came out at 0.156.

As to A23C C66A, the self-cleavage is 0.908.

For A23C C66U, the self-cleavage was 0.94.

A23G U49A: the self-cleavage stood at 0.957.

For A23G U49C, the self-cleavage amounted to 0.966.

Turning to A23G U49G, the self-cleavage was 1.03.

For A23G G48C, the self-cleavage came out at 0.975.

Consider A23G G48U, for which the self-cleavage is 0.972.

For the variant A23G U36A, the self-cleavage was found to be 0.241.

Consider A23G U36C, for which the self-cleavage came out at 0.891.

In the case of A23G U36G, the self-cleavage worked out at 0.227.

In the case of A23G C24A, the self-cleavage is 0.711.

In the case of A23G C24G, the self-cleavage is 0.36.

A23G C24U: the self-cleavage was found to be 0.833.

For the variant A23C U62G, the self-cleavage stood at 0.853.

As to A23C U62C, the self-cleavage stood at 0.818.

Consider A23G C57U, for which the self-cleavage was determined as 0.418.

In the case of A23G C57G, the self-cleavage was 0.332.

Consider A23C U69C, for which the self-cleavage was found to be 1.04.

Consider A23C U69A, for which the self-cleavage was 0.959.

In the case of A23U G48A, the self-cleavage was found to be 0.984.

Take A23U G48U: the self-cleavage was 1.01.

As for A23G A40G, the self-cleavage was found to be 0.992.

With A23G A40C, the self-cleavage was found to be 0.328.

On to A23G C66A, for which the self-cleavage was 0.597.

With A23G C66G, the self-cleavage was 0.594.

A23G C66U: the self-cleavage turned out to be 0.964.

As for C24A A59U, the self-cleavage came to 0.267.

Regarding C24A A59G, the self-cleavage came out at 0.731.

In the case of A23U C33A, the self-cleavage came out at 0.876.

With A23U C33G, the self-cleavage is 0.773.

As for C24A U46A, the self-cleavage turned out to be 0.793.

As for A23U C24A, the self-cleavage worked out at 0.888.

C24A C66U: the self-cleavage came to 0.651.

On to C24A C66G, for which the self-cleavage was determined as 0.493.

Regarding C24A C66A, the self-cleavage came out at 0.397.

For the variant A23U G68C, the self-cleavage came out at 1.01.

A23U G68U: the self-cleavage turned out to be 1.03.

On to A23U G68A, for which the self-cleavage was 0.989.

For the variant C24A U26A, the self-cleavage is 0.257.

As to C24A U26G, the self-cleavage is 0.283.

For the variant A23U A59G, the self-cleavage was 0.972.

On to A23C U53G, for which the self-cleavage came out at 0.81.

With A23C U53C, the self-cleavage was found to be 0.915.

As for A23C C57U, the self-cleavage turned out to be 0.406.

On to A23U C29U, for which the self-cleavage stood at 0.437.

Regarding A23U C29A, the self-cleavage is 0.8.

A23U C29G: the self-cleavage came out at 0.569.

Consider A23C U46A, for which the self-cleavage was found to be 0.923.

Regarding A23U A60G, the self-cleavage was 0.642.

A23U A60U: the self-cleavage stood at 0.66.

A23U A60C: the self-cleavage came to 0.385.

As for A23U C66G, the self-cleavage is 0.848.

As to A23U C66U, the self-cleavage is 0.964.

In the case of C24A G58U, the self-cleavage was 0.773.

For C24A G58A, the self-cleavage is 0.4.

As for A23G C35G, the self-cleavage turned out to be 0.336.

As for A23G C35A, the self-cleavage stood at 0.215.

Take C24A C54U: the self-cleavage was determined as 0.854.

On to C24A G25U, for which the self-cleavage was 0.17.

For the variant C24A G25A, the self-cleavage was found to be 0.13.

Regarding C24A G25C, the self-cleavage is 0.122.

As for A23G G28U, the self-cleavage turned out to be 0.137.

Regarding A23G C45U, the self-cleavage was found to be 0.991.

As to A23G C45G, the self-cleavage stood at 0.971.

Take A23C U38G: the self-cleavage amounted to 0.216.

As to A23C U67A, the self-cleavage is 0.988.

Take A23C U67C: the self-cleavage was 0.97.

Turning to C24A A40C, the self-cleavage stood at 0.31.

For the variant C24A A40G, the self-cleavage is 0.591.

As for A23U U36G, the self-cleavage worked out at 0.35.

A23U U36C: the self-cleavage is 0.996.

Regarding A23U U36A, the self-cleavage stood at 0.222.

For the variant A23C G50A, the self-cleavage is 0.946.

Take A23C G50C: the self-cleavage amounted to 0.981.

Consider A23C G50U, for which the self-cleavage was 0.953.

On to A23U G30U, for which the self-cleavage stood at 0.547.

In the case of A23U G30C, the self-cleavage is 0.786.

Regarding A23U G30A, the self-cleavage is 0.96.

Consider C24A C45A, for which the self-cleavage turned out to be 0.712.

Regarding C24A C45U, the self-cleavage was found to be 0.751.

Regarding C24A C45G, the self-cleavage is 0.677.

As for A23U G41U, the self-cleavage came to 0.868.

Regarding A23U G41A, the self-cleavage worked out at 0.821.

Take A23U G41C: the self-cleavage worked out at 0.912.

As to C24A G41C, the self-cleavage is 0.299.

Take C24A G41A: the self-cleavage came to 0.391.

With C24A G41U, the self-cleavage is 0.456.

A23G U61C: the self-cleavage was 0.614.

Take A23U C35U: the self-cleavage worked out at 0.974.

On to A23U C35G, for which the self-cleavage came out at 0.658.

Consider A23U G65A, for which the self-cleavage is 0.885.

Consider A23U G65C, for which the self-cleavage stood at 0.698.

A23G C33G: the self-cleavage came out at 0.262.

With A23G C33A, the self-cleavage is 0.679.

As to A23G C33U, the self-cleavage came out at 0.939.

As for A23C G65A, the self-cleavage amounted to 0.764.

As for A23C G65C, the self-cleavage worked out at 0.535.

As for A23C G65U, the self-cleavage turned out to be 0.674.

Regarding A23C U36C, the self-cleavage was 0.679.

On to A23U C63G, for which the self-cleavage was 0.858.

As to A23U C63U, the self-cleavage was 1.01.

For A23U C63A, the self-cleavage was 0.886.

As to A23G A60G, the self-cleavage is 0.866.

Consider A23G A60U, for which the self-cleavage worked out at 0.385.

Turning to A23G A60C, the self-cleavage stood at 0.249.

With A23U A52C, the self-cleavage worked out at 1.04.

Turning to A23U A52U, the self-cleavage came out at 0.996.

As to A23U A52G, the self-cleavage stood at 0.642.

For the variant A23G U53C, the self-cleavage worked out at 0.8.

Turning to A23G U53A, the self-cleavage was 0.916.

For A23G U55C, the self-cleavage stood at 0.789.

For the variant A23G U55G, the self-cleavage was found to be 0.752.

For A23G U55A, the self-cleavage came to 0.879.

As for C24A A51C, the self-cleavage came to 0.68.

For C24A A51G, the self-cleavage worked out at 0.754.

As to A23U C57A, the self-cleavage came to 0.288.

With A23U C57U, the self-cleavage came to 0.28.

In the case of C24A C35G, the self-cleavage stood at 0.173.

Take A23G C29A: the self-cleavage was 0.401.

A23G C29G: the self-cleavage was determined as 0.211.

On to A23C G25A, for which the self-cleavage turned out to be 0.203.

As for A23U U64A, the self-cleavage turned out to be 0.943.

In the case of A23U U64G, the self-cleavage turned out to be 0.917.

With A23G C63G, the self-cleavage is 0.521.

With A23G C63A, the self-cleavage is 0.681.

Take A23G C63U: the self-cleavage was determined as 0.95.

As to A23U G31U, the self-cleavage worked out at 0.842.

Consider A23U G31C, for which the self-cleavage was determined as 0.215.

In the case of A23U G28U, the self-cleavage amounted to 0.148.

Regarding A23U G28C, the self-cleavage was 0.217.

With A23G A59C, the self-cleavage was 0.699.

As for A23G A59U, the self-cleavage came out at 0.817.

In the case of A23G C39A, the self-cleavage was 0.785.

With A23G C39G, the self-cleavage is 0.888.

As to A23U C45U, the self-cleavage turned out to be 0.975.

For A23U U67A, the self-cleavage was 0.975.

As for A23U U67C, the self-cleavage is 1.

As to A23U U67G, the self-cleavage was 0.979.

Consider A23G G30U, for which the self-cleavage amounted to 0.229.

Consider A23G G30A, for which the self-cleavage worked out at 0.79.

Regarding A23G G30C, the self-cleavage stood at 0.432.

As to C24A C34A, the self-cleavage was found to be 0.262.

With C24A C34G, the self-cleavage stood at 0.227.

Take A23G G65U: the self-cleavage stood at 0.554.

With A23G G65A, the self-cleavage was 0.752.

A23G G65C: the self-cleavage is 0.537.

On to A23U C34G, for which the self-cleavage is 0.819.

Turning to A23U C34A, the self-cleavage was determined as 0.956.

Turning to A23C G28C, the self-cleavage is 0.183.

As for A23C G28A, the self-cleavage was 0.206.

For A23G U43C, the self-cleavage was 0.937.

On to A23G U43A, for which the self-cleavage turned out to be 0.877.

As for A23G U43G, the self-cleavage amounted to 0.721.

The values are drawn from the RNAGym collection of RNA variant scans (doi:10.7554/elife.80360).
